Laboratory results published in US20200002432A1, “ANTI-CD98 ANTIBODIES AND ANTIBODY DRUG CONJUGATES” (AbbVie Inc., priority 2016, published 2020).

T1: human CD98 ECD (huCD98 ECD) (Homo sapiens, UniProt P08195)
T1 construct: His6 (with AAA linker) (C)
T1 sequence (P08195 with tags, fused parts or gaps): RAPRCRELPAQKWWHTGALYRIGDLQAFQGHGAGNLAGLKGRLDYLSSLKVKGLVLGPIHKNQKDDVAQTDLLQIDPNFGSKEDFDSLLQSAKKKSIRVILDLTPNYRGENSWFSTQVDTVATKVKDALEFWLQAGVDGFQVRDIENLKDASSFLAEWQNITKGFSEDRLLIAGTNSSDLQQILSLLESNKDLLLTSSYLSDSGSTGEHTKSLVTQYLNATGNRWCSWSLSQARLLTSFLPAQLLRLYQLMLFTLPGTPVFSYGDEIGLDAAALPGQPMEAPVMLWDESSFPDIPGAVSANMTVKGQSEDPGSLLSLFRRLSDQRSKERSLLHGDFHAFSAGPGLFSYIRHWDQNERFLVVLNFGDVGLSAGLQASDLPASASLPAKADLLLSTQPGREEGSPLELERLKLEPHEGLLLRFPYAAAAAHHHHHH

T2: human CD98 (Homo sapiens, UniProt P08195)
T2 sequence (P08195 1-630 isoform P08195-1): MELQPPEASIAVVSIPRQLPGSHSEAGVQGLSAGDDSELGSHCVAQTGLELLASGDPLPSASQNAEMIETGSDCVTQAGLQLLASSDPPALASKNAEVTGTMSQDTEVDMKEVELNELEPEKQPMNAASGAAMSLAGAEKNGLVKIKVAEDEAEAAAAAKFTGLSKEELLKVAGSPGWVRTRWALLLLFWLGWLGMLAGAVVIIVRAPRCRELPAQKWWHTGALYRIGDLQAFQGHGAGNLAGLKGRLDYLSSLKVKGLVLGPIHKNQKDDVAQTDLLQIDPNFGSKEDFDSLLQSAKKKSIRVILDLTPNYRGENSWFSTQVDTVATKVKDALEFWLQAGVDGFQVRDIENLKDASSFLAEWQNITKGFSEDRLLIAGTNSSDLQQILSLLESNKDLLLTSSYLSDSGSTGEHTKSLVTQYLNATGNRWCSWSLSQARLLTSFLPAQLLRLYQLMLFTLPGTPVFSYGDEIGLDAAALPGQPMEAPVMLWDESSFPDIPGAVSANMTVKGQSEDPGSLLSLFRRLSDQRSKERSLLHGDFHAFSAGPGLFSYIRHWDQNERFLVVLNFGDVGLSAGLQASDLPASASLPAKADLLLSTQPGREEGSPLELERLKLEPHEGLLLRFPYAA

T3: Human CD98 ECD with C-terminal His-tag (human, UniProt P08195 105-529)
T3 construct: also called huCD98 ECD; recombinant human CD98 extracellular domain
T3 sequence: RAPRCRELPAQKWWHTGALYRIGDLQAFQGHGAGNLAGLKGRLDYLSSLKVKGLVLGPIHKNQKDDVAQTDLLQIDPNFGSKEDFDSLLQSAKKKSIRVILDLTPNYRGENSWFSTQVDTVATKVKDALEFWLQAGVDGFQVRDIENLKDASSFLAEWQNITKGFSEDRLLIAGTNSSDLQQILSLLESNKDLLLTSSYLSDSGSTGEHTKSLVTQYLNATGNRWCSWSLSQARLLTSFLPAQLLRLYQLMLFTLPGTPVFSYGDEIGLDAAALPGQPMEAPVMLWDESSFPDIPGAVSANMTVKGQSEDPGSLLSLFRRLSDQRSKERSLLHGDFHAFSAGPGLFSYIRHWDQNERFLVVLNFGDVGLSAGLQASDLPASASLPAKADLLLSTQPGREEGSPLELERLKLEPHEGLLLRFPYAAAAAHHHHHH

T4: Cynomolgus monkey CD98 ECD with C-terminal His-tag (cynomolgus monkey, UniProt P08195 105-529 (human entry))
T4 construct: also called cyCD98 ECD; recombinant cynomolgus monkey CD98 extracellular domain
T4 chain: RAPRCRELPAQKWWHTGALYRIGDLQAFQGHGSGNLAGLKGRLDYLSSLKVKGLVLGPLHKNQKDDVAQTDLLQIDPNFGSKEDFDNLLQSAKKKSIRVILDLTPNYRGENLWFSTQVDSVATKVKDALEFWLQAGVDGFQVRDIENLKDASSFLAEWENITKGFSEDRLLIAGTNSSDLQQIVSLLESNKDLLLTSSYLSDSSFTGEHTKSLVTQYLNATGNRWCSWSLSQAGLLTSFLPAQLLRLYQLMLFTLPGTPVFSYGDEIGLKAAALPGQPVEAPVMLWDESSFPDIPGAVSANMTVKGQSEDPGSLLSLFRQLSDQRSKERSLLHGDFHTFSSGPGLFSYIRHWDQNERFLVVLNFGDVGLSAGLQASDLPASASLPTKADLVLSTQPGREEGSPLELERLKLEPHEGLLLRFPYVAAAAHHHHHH


Assays:
[1] = tested on: cynomolgus monkey CD98 ECD (cyCD98 ECD); assay: Biacore surface plasmon resonance binding kinetics, anti-Fc capture; details: framework re-engineered mAbs, Table 24
Experimental: (§1) The binding kinetics of these purified mouse and rat monoclonal anti-CD98 antibodies for purified recombinant CD98 protein (extracellular domain, ECD) were determined by surface plasmon resonance-based measurements made on Biacore T100/T200 instruments (GE Healthcare, Piscataway, N.J.) at 25° C. using an anti-Fc capture assay approach. Binding kinetic measurements were made in the assay buffer HBS-EP+: 10 mM Hepes, pH 7.4, 150 mM NaCl, 3 mM EDTA, 0.05% Tween 20). For example, approximately 8000 RU of anti-Fc (species specific) polyclonal antibody (Thermo Fisher Scientific Inc., Rockford, Ill.) diluted in 10 mM sodium acetate (pH 4.5) was directly immobilized across a CM5 research grade biosensor chip using a standard amine coupling kit according to manufacturer's instructions and procedures at 25 μg/ml. Unreacted moieties on the biosensor surface were blocked with ethanolamine. The test antibody to be captured as a ligand was diluted in running buffer to ˜0.5 μg/mL and injected over anti-Fc surface at a flow rate of 10 μL/min. CD98 binding and dissociation were observed under a continuous flow rate of 80 μL/min. Human and cynomolgus monkey CD98 ECDs, both with a C-terminal His-tag, are used for this study (Table 3). After each cycle the anti-Fc capture surface was regenerated using 10 mM Glycine-HCl, pH 1.5. During the assay, all measurements were referenced against the capture surface alone (i.e., with no captured test antibody) and buffer-only injections (no antigen) were used for double referencing. For kinetic analysis, rate equations derived from the 1:1 Langmuir binding model were fitted simultaneously, globally and with mass transfer term included to multiple referenced antigen binding curves using Biacore T100/T200 Evaluation software.
(§2) The in vitro binding activities of the recombinant anti-CD98 chimeric mAbs were measured against both recombinant CD98 extracellular domain proteins (ECDs) and CD98-expressing cells. Briefly, binding kinetics of anti-CD98 chimera mAbs for human and cynomolgus CD98 ECDs were determined by surface plasmon resonance-based measurements as described in Example 4. Table 10 reported the association and dissociation rate constants for CD98 binding, ka (M^−1s^−1) and […], and the equilibrium dissociation constant KD (M) of the interaction between antibodies and the target antigen. Binding of anti-CD98 chimera mAbs for CD98 on cell surface was evaluated by flow cytometry against CHO-K1 cell line stably transfected to express human CD98 and 3T12 cell line stably transfected to express cynomolgus monkey CD98. Data was analyzed using Graphpad Prism software and EC50 values were reported as the concentration of antibody to achieve 50% of maximal binding to CD98-expressing cells (Table 10).
(§3) The binding kinetics of the recombinant anti-CD98 chimeric antibodies for purified recombinant CD98 protein (extracellular domain. ECD) were determined by surface plasmon resonance-based measurements, as described in the Example 4.

[2] = molecular target: T1, human CD98 ECD (huCD98 ECD); assay: as above; details: framework re-engineered mAbs, Table 24
Experimental: as §1, §2, §3

human CD98 = molecular target: T2, human CD98; assay: Binding of humanized anti-CD98 antibodies to human CD98; details: humanized variants of huAb3/huAb15 and framework engineered antibodies
[3] = molecular target: T3, Human CD98 ECD with C-terminal His-tag; assay: SPR (Biacore), mAb captured on anti-Fc, CD98 ECD as analyte
Experimental: as §1

[4] = molecular target: T4, Cynomolgus monkey CD98 ECD with …; assay: as above
Experimental: as §1

Row | ka, cynoCD98 ECD [1] [M⁻¹ s⁻¹] | kd, cynoCD98 ECD [1] [s⁻¹] | ka, huCD98 ECD [2] [M⁻¹ s⁻¹] | kd, huCD98 ECD [2] [s⁻¹] | binding to human CD98 (human CD98) | Kd [3] [µM] | koff [3] [s⁻¹] | kon [3] [M⁻¹ s⁻¹] | Kd [4] [µM] | koff [4] [s⁻¹] | kon [4] [M⁻¹ s⁻¹] | Molecule
1 | 31000 | 0.00044 | 180000 | 0.00059 | maintained binding to human CD98 | – | – | – | – | – | – | huAb103: humanized framework engineered anti-CD98 antibody; heavy chain variable SEQ ID NO: 109, light chain variable SEQ ID NO: 107 (antibody, V domains shown) VH: EVQLVESGGGLVKPGGSLRLSCATSGFTFIDYYMSWVRQAPGKGLEWLGFIRNKAYGYTTEYSASVKGRFTISRDNSKSILYLQMNSLKTEDTAVYYCTRDRPAWFVYWGQGTLVTVSS VL: DIVMTQTPLSLPVTPGEPASISCKSSQSLLYSSNQKNYLAWYLQKPGQSPQLLIYWASTRESGVPDRFSGSGSGTDFTLKISRVEAEDVGVYYCQQYYSYPYTFGGGTKVEIK
2 | 38000 | 5.3e-05 | 140000 | 2.4e-05 | maintained binding to human CD98 | – | – | – | – | – | – | huAb105: humanized framework engineered anti-CD98 antibody; heavy chain variable SEQ ID NO: 111, light chain variable SEQ ID NO: 112 (antibody, V domains shown) VH: EVQLVESGGGLVQPGGSLRLSCAASGFTFSDYTMAWVRQAPGKGLEWVATIIYSGRGTYYRDAVKGRFTISRDNAKNTLYLQMNSLRAEDTAVYYCARQSDHTYYYWGYFDYWGQGTMVTVSS VL: DIVMTQTPLSLPVTPGEPASINCKSSQSLLFSGNQKNYLAWYLQKPGQSPQLLIYWASTRQSGVPDRFSGSGSGTDFTLKISRVEAEDVGIYYCQQYYDVPYTFGQGTKLEIK
3 | – | – | – | – | – | 0.0019 | 5.5e-05 | 29000 | 0.047 | 0.00088 | 19000 | Ab13 (antibody, V domains shown, also called anti-CD98 hybridoma mAb Ab13) VH: EVKLQQSGDELVRPGASVKISCKASGYTFTSYSMHWVKERPGQGLEWIGAIFPIIGTTEYNQKFKGKATLTADKSSNTANMELSRLTSEDSAVYYCARVYLSYFDYWGQGVMVTVSS VL: DIQMTQSPSFLSASVGDRVTINCKASQNINKYLDWYQRKHGEAPKLLIYNTNNLQTGIPSRFSGSGSGTDYTLTISSLQPEDVATYFCLQHSSRYTFGAGTKLELK

The remaining lines, values behind:

Row | Molecule | ka, cynoCD98 ECD [1] [M⁻¹ s⁻¹] | kd, cynoCD98 ECD [1] [s⁻¹] | ka, huCD98 ECD [2] [M⁻¹ s⁻¹] | kd, huCD98 ECD [2] [s⁻¹] | binding to human CD98 (human CD98) | Kd [3] [µM] | koff [3] [s⁻¹] | kon [3] [M⁻¹ s⁻¹] | Kd [4] [µM] | koff [4] [s⁻¹] | kon [4] [M⁻¹ s⁻¹]
4 | huAb101: humanized framework engineered anti-CD98 antibody; heavy chain variable SEQ ID NO: 106, light chain variable SEQ ID NO: 107 (antibody, V domains shown) VH: EVQLVESGGGLVKPGGSLRLSCATSGFTFIDYYMSWVRQAPGKGLEWLGFIRNKANRYTTEYSASVKGRFTISRDNSKSILYLQMNSLKTEDTAVYYCTRDRPAWFVYWGQGTLVTVSS VL: DIVMTQTPLSLPVTPGEPASISCKSSQSLLYSSNQKNYLAWYLQKPGQSPQLLIYWASTRESGVPDRFSGSGSGTDFTLKISRVEAEDVGVYYCQQYYSYPYTFGGGTKVEIK | 30000 | 0.00067 | 290000 | 0.0018 | maintained binding to human CD98 | – | – | – | – | – | –
5 | huAb107: humanized framework engineered anti-CD98 antibody; heavy chain variable SEQ ID NO: 114, light chain variable SEQ ID NO: 112 (antibody, V domains shown) VH: EVQLVESGGGLVQPGGSLRLSCAASGFTFSDYTMAWVRQAPGKGLEWVATIIYSGRGTYYRDAVKGRFTISRDNAKNTLYLQMNSLRAEDTAVYYCARQSDDTYYYWGYFDYWGQGTMVTVSS VL: DIVMTQTPLSLPVTPGEPASINCKSSQSLLFSGNQKNYLAWYLQKPGQSPQLLIYWASTRQSGVPDRFSGSGSGTDFTLKISRVEAEDVGIYYCQQYYDVPYTFGQGTKLEIK | 33000 | 8.7e-05 | 110000 | 3.8e-05 | maintained binding to human CD98 | – | – | – | – | – | –
6 | huAb109: humanized framework engineered anti-CD98 antibody; heavy chain variable SEQ ID NO: 116, light chain variable SEQ ID NO: 117 (antibody, V domains shown) VH: EVQLVESGGGLVQPGGSLRLSCAASGFTFSDYTMAWVRQAPGKGLEWVATIIYDARGTYYRDAVKGRFTISRDNAKNTLYLQMNSLRAEDTAVYYCARQSDDTYYYWGYFDYWGQGTMVTVSS VL: DIVMTQTPLSLPVTPGEPASINCKSSQSLLFSGNQKNYLAWYLQKPGQSPQLLIYWASTRQSGVPDRFSGSGSGTDFTLKISRVEAEDVGIYYCQQYYSSPYTFGQGTKLEIK | 26000 | 0.00031 | 160000 | 0.00017 | maintained binding to human CD98 | – | – | – | – | – | –
